# Measured values: the Immune Epitope Database (IEDB)
# pKd: −log10 of the molar value.
# Experiments:
# HLA-A*02:02 = assay: IEDB peptide-MHC binding, purified MHC/competitive/radioactivity; filed as Kd, often an IC50 or EC50 that approximates it; ≥ and ≤ were set here for values at or beyond the usual limits of such assays
# HLA-A*02:03 = assay: as above
# HLA-A*02:06 = assay: as above
# HLA-A*68:02 = assay: as above
# HLA-B*08:01 = assay: as above
# HLA-B*15:01 = assay: as above; conditions: source organism: Vaccinia virus WR
# HLA-A*01:01 = assay: as above
# HLA-A*23:01 = assay: as above
# HLA-A*24:02 = assay: as above
# HLA-A*26:01 = assay: as above
# HLA-A*29:02 = assay: as above
# HLA-A*30:02 = assay: as above
# HLA-A*02:01 = assay: IEDB peptide-MHC binding, purified MHC/competitive/fluorescence; filed as Kd, often an IC50 or EC50 that approximates it; ≥ and ≤ were set here for values at or beyond the usual limits of such assays; conditions: source organism: Variola virus
# HLA-B*18:01 = assay: IEDB peptide-MHC binding, purified MHC/direct/fluorescence; filed as Kd, often an IC50 or EC50 that approximates it; ≥ and ≤ were set here for values at or beyond the usual limits of such assays; conditions: source organism: Salmonella enterica subsp. enterica serovar Typhimurium str. LT2
# HLA-A*30:01 = assay: IEDB peptide-MHC binding, purified MHC/competitive/radioactivity; filed as Kd, often an IC50 or EC50 that approximates it; ≥ and ≤ were set here for values at or beyond the usual limits of such assays
# HLA-B*35:01 = assay: as above
# HLA-A*03:01 = assay: as above; conditions: source organism: Triticum aestivum
# HLA-A*11:01 = assay: as above; conditions: source organism: Triticum aestivum
# HLA-A*31:01 = assay: as above; conditions: source organism: Triticum aestivum
# HLA-A*33:01 = assay: as above; conditions: source organism: Triticum aestivum
# HLA-A*68:01 = assay: as above; conditions: source organism: Triticum aestivum
# HLA-B*53:01 = assay: as above; conditions: source organism: Dengue virus 1 Singapore/S275/1990
# [1] = source organism: Lassa virus GA391
# [2] = source organism: Vaccinia virus WR
# [3] = source organism: SARS coronavirus Tor2
# [4] = source organism: Mammarenavirus juninense
# [5] = source organism: Dengue virus 2 Jamaica/1409/1983
# [6] = source organism: Dengue virus 3 Martinique/1243/1999
# [7] = source organism: Lassa virus Josiah
# [8] = source organism: Mammarenavirus lassaense
# [9] = source organism: Triticum aestivum
# [10] = source organism: Dengue virus 4 Philippines/H241/1956
# [11] = source organism: Lymphocytic choriomeningitis virus (strain Armstrong)
sequence,measurement,setting,value
NISGYNFSL,pKd,HLA-A*02:02; [1],7.14
same,pKd,HLA-A*02:03; [1],5.68
same,pKd,HLA-A*02:06; [1],6.83
same,pKd,HLA-A*68:02; [1],6.75
NLEKQIATL,pKd,HLA-A*68:02; source organism: Homo sapiens,≤ 4.58
NMHLKRSVF,pKd,HLA-B*08:01; [2],6.83
NSKSRICVI,pKd,HLA-B*08:01; [2],7.95
same,pKd,HLA-B*15:01,5.85
NYMPYVFTLL,pKd,HLA-A*01:01; [3],≤ 4.39
same,pKd,HLA-A*23:01; [3],8.95
same,pKd,HLA-A*24:02; [3],8.99
same,pKd,HLA-A*26:01; [3],≤ 4.16
same,pKd,HLA-A*29:02; [3],6.89
same,pKd,HLA-A*30:02; [3],5.59
QLNMEKREV,pKd,HLA-A*02:01,6.85
QWSLFFFVY,pKd,HLA-A*01:01; [3],5.09
same,pKd,HLA-A*23:01; [3],≤ 4.11
same,pKd,HLA-A*24:02; [3],≤ 4.35
same,pKd,HLA-A*26:01; [3],4.75
same,pKd,HLA-A*29:02; [3],7.87
same,pKd,HLA-A*30:02; [3],5.86
RCWLIKNNSY,pKd,HLA-A*01:01; [4],≤ 4.51
same,pKd,HLA-A*23:01; [4],≤ 4.15
same,pKd,HLA-A*24:02; [4],≤ 4.15
same,pKd,HLA-A*26:01; [4],≤ 4.16
same,pKd,HLA-A*29:02; [4],≤ 4.54
same,pKd,HLA-A*30:02; [4],8.00
RERGLALHV,pKd,HLA-B*18:01,5.35
RMRFKKGAV,pKd,HLA-B*08:01; [2],8.27
RSTSLSVSLV,pKd,HLA-A*68:02; [5],6.60
RTATLILAGV,pKd,HLA-A*02:03; [6],8.19
same,pKd,HLA-A*02:06; [6],8.28
same,pKd,HLA-A*68:02; [6],9.59
RTRGPLGIL,pKd,HLA-A*30:01; [2],10.06
RVHDTNATK,pKd,HLA-A*30:01; [2],8.12
RVKQISIST,pKd,HLA-A*30:01; source organism: Vaccinia virus Copenhagen,9.43
SGMVFTSPV,pKd,HLA-B*08:01; [2],7.11
SPYYRNSVA,pKd,HLA-B*08:01; [2],6.95
SRFKKVYIL,pKd,HLA-B*08:01; [2],7.12
SVNMISRMLI,pKd,HLA-A*68:02; [5],6.63
TTANISLTAI,pKd,HLA-A*68:02; source organism: Dengue virus 1 Brazil/97-11/1997,9.10
VAATMANEM,pKd,HLA-B*35:01; [5],6.24
VLIALSVLAV,pKd,HLA-A*02:02; [7],6.79
same,pKd,HLA-A*02:03; [7],7.91
same,pKd,HLA-A*02:06; [7],6.89
same,pKd,HLA-A*68:02; [7],5.43
VPVHLCNLI,pKd,HLA-A*01:01; [8],≤ 4.11
same,pKd,HLA-A*23:01; [8],5.50
same,pKd,HLA-A*24:02; [8],5.24
same,pKd,HLA-A*26:01; [8],≤ 4.11
same,pKd,HLA-A*29:02; [8],≤ 4.10
same,pKd,HLA-A*30:02; [8],≤ 4.32
VVLQQHSIAY,pKd,HLA-A*01:01; [9],≤ 4.15
same,pKd,HLA-A*03:01,5.63
same,pKd,HLA-A*11:01,5.79
same,pKd,HLA-A*23:01; [9],≤ 4.59
same,pKd,HLA-A*24:02; [9],≤ 4.40
same,pKd,HLA-A*26:01; [9],≤ 4.16
same,pKd,HLA-A*29:02; [9],5.98
same,pKd,HLA-A*30:02; [9],5.27
same,pKd,HLA-A*31:01,≤ 4.15
same,pKd,HLA-A*33:01,≤ 4.15
same,pKd,HLA-A*68:01,≤ 4.60
WAFCEVLTL,pKd,HLA-B*35:01; [10],6.24
WAKNIHTAI,pKd,HLA-B*08:01; [10],7.63
WATLLSLTF,pKd,HLA-B*35:01; source organism: Dengue virus 1 Singapore/S275/1990,6.90
same,pKd,HLA-B*53:01,8.39
WTAGADTSEV,pKd,HLA-A*68:02; source organism: Dengue virus 4 Dominica/814669/1981,7.54
YCNYSKFWY,pKd,HLA-A*01:01; [11],≤ 4.67
same,pKd,HLA-A*23:01; [11],4.84
same,pKd,HLA-A*24:02; [11],≤ 4.63
same,pKd,HLA-A*26:01; [11],≤ 4.11
same,pKd,HLA-A*29:02; [11],5.99
same,pKd,HLA-A*30:02; [11],5.89
YFPREGVFVF,pKd,HLA-A*01:01; [3],≤ 4.15
same,pKd,HLA-A*23:01; [3],8.24
same,pKd,HLA-A*24:02; [3],8.13
same,pKd,HLA-A*26:01; [3],4.76
same,pKd,HLA-A*29:02; [3],8.14
same,pKd,HLA-A*30:02; [3],≤ 4.10
YRGAKRMAIL,pKd,HLA-B*08:01; [10],6.89
YRKYHVPIM,pKd,HLA-B*08:01; [2],7.21
YSAPFESEGV,pKd,HLA-A*68:02; [10],8.60
